Test results published in publication PMC2946844.

B1: o_o_o/m_m_m (dsDNA)
DNA 1: TTTGCGGTCCGCTGCCCGACCC
DNA 2: GGGTCGGGCAGCGGACCGCAAA
modifications: strand 2 5mC5,5mC12,5mC17
B2: o_m_m/o_m_o (dsDNA)
DNA 1: TTTGCGGTCCGCTGCCCGACCC
DNA 2: GGGTCGGGCAGCGGACCGCAAA
modifications: strand 1 5mC10,5mC17; strand 2 5mC12
B3: o_o_m/o_m_o (dsDNA)
DNA 1: TTTGCGGTCCGCTGCCCGACCC
DNA 2: GGGTCGGGCAGCGGACCGCAAA
modifications: strand 1 5mC17; strand 2 5mC12
B4: m_o_o/o_m_o (dsDNA)
DNA 1: TTTGCGGTCCGCTGCCCGACCC
DNA 2: GGGTCGGGCAGCGGACCGCAAA
modifications: strand 1 5mC5; strand 2 5mC12
B5: o_m_m/m_o_m (dsDNA)
DNA 1: TTTGCGGTCCGCTGCCCGACCC
DNA 2: GGGTCGGGCAGCGGACCGCAAA
modifications: strand 1 5mC10,5mC17; strand 2 5mC5,5mC17
B6: m_o_o/m_o_m (dsDNA)
DNA 1: TTTGCGGTCCGCTGCCCGACCC
DNA 2: GGGTCGGGCAGCGGACCGCAAA
modifications: strand 1 5mC5; strand 2 5mC5,5mC17
B7: o_m_o/o_m_o (dsDNA)
DNA 1: TTTGCGGTCCGCTGCCCGACCC
DNA 2: GGGTCGGGCAGCGGACCGCAAA
modifications: strand 1 5mC10; strand 2 5mC12
B8: o_m_o/m_m_m (dsDNA)
DNA 1: TTTGCGGTCCGCTGCCCGACCC
DNA 2: GGGTCGGGCAGCGGACCGCAAA
modifications: strand 1 5mC10; strand 2 5mC5,5mC12,5mC17
B9: o_m_o/o_o_o (dsDNA)
DNA 1: TTTGCGGTCCGCTGCCCGACCC
DNA 2: GGGTCGGGCAGCGGACCGCAAA
modifications: strand 1 5mC10
B10: m_o_o/m_m_m (dsDNA)
DNA 1: TTTGCGGTCCGCTGCCCGACCC
DNA 2: GGGTCGGGCAGCGGACCGCAAA
modifications: strand 1 5mC5; strand 2 5mC5,5mC12,5mC17
B11: o_o_m/o_o_o (dsDNA)
DNA 1: TTTGCGGTCCGCTGCCCGACCC
DNA 2: GGGTCGGGCAGCGGACCGCAAA
modifications: strand 1 5mC17
B12: o_m_o/m_o_m (dsDNA)
DNA 1: TTTGCGGTCCGCTGCCCGACCC
DNA 2: GGGTCGGGCAGCGGACCGCAAA
modifications: strand 1 5mC10; strand 2 5mC5,5mC17
B13: m_o_o*/o_o_o (dsDNA)
DNA 1: GTAGTTTGCGGTCCGCTGCCCGACC
DNA 2: GGGTCGGGCAGCGGACCGCAAA
modifications: strand 1 5mC9
B14: m_o_o*/m_o_m (dsDNA)
DNA 1: GTAGTTTGCGGTCCGCTGCCCGACC
DNA 2: GGGTCGGGCAGCGGACCGCAAA
modifications: strand 1 5mC9; strand 2 5mC5,5mC17
B15: o_o_m/m_o_m (dsDNA)
DNA 1: TTTGCGGTCCGCTGCCCGACCC
DNA 2: GGGTCGGGCAGCGGACCGCAAA
modifications: strand 1 5mC17; strand 2 5mC5,5mC17
B16: o_o_o/o_m_m (dsDNA)
DNA 1: TTTGCGGTCCGCTGCCCGACCC
DNA 2: GGGTCGGGCAGCGGACCGCAAA
modifications: strand 2 5mC5,5mC12
B17: o_m_m/m_m_m (dsDNA)
DNA 1: TTTGCGGTCCGCTGCCCGACCC
DNA 2: GGGTCGGGCAGCGGACCGCAAA
modifications: strand 1 5mC10,5mC17; strand 2 5mC5,5mC12,5mC17
B18: m_o_o/o_m_m (dsDNA)
DNA 1: TTTGCGGTCCGCTGCCCGACCC
DNA 2: GGGTCGGGCAGCGGACCGCAAA
modifications: strand 1 5mC5; strand 2 5mC5,5mC12
B19: o_o_o_o/o_o_o_o (dsDNA)
DNA 1: GAAGTCAACAGGACGGACGCCGCGCAA
DNA 2: CTCTTTCTTTGCGCGGCGTCCGTCCTGTTGACTTCCTCT
B20: o_o_o_m/o_m_m_o (dsDNA)
DNA 1: GAAGTCAACAGGACGGACGCCGCGCAA
DNA 2: B19 DNA 2
modifications: strand 1 5mC23; strand 2 5mC14,5mC17
B21: o_m_o_o/o_o_m_m (dsDNA)
DNA 1: GAAGTCAACAGGACGGACGCCGCGCAA
DNA 2: B19 DNA 2
modifications: strand 1 5mC18; strand 2 5mC12,5mC14
B22: o_o_m_o/o_m_m_o (dsDNA)
DNA 1: GAAGTCAACAGGACGGACGCCGCGCAA
DNA 2: B19 DNA 2
modifications: strand 1 5mC21; strand 2 5mC14,5mC17
B23: o_o_o_o/o_o_m_o (dsDNA)
DNA 1: GAAGTCAACAGGACGGACGCCGCGCAA
DNA 2: B19 DNA 2
modifications: strand 2 5mC14
B24: o_o_o_m/o_o_o_o (dsDNA)
DNA 1: GAAGTCAACAGGACGGACGCCGCGCAA
DNA 2: B19 DNA 2
modifications: strand 1 5mC23
B25: o_m_o_o/o_o_m_o (dsDNA)
DNA 1: GAAGTCAACAGGACGGACGCCGCGCAA
DNA 2: B19 DNA 2
modifications: strand 1 5mC18; strand 2 5mC14
B26: o_o_m_o/o_o_m_o (dsDNA)
DNA 1: GAAGTCAACAGGACGGACGCCGCGCAA
DNA 2: B19 DNA 2
modifications: strand 1 5mC21; strand 2 5mC14
B27: m_o_o_o/m_m_o_o (dsDNA)
DNA 1: GAAGTCAACAGGACGGACGCCGCGCAA
DNA 2: B19 DNA 2
modifications: strand 1 5mC14; strand 2 5mC17,5mC21
B28: m_o_o_o/o_m_m_o (dsDNA)
DNA 1: GAAGTCAACAGGACGGACGCCGCGCAA
DNA 2: B19 DNA 2
modifications: strand 1 5mC14; strand 2 5mC14,5mC17
B29: o_o_o_o/o_o_m_m (dsDNA)
DNA 1: GAAGTCAACAGGACGGACGCCGCGCAA
DNA 2: B19 DNA 2
modifications: strand 2 5mC12,5mC14
B30: o_m_o_o/o_m_m_o (dsDNA)
DNA 1: GAAGTCAACAGGACGGACGCCGCGCAA
DNA 2: B19 DNA 2
modifications: strand 1 5mC18; strand 2 5mC14,5mC17
B31: o_o_o_m/o_o_m_m (dsDNA)
DNA 1: GAAGTCAACAGGACGGACGCCGCGCAA
DNA 2: B19 DNA 2
modifications: strand 1 5mC23; strand 2 5mC12,5mC14
B32: m_o_o_o/o_o_m_m (dsDNA)
DNA 1: GAAGTCAACAGGACGGACGCCGCGCAA
DNA 2: B19 DNA 2
modifications: strand 1 5mC14; strand 2 5mC12,5mC14
B33: o_o_o_o/o_m_m_o (dsDNA)
DNA 1: GAAGTCAACAGGACGGACGCCGCGCAA
DNA 2: B19 DNA 2
modifications: strand 2 5mC14,5mC17
B34: o_o_o_m/o_o_m_o (dsDNA)
DNA 1: GAAGTCAACAGGACGGACGCCGCGCAA
DNA 2: B19 DNA 2
modifications: strand 1 5mC23; strand 2 5mC14
B35: m_o_o_o/o_o_m_o (dsDNA)
DNA 1: GAAGTCAACAGGACGGACGCCGCGCAA
DNA 2: B19 DNA 2
modifications: strand 1 5mC14; strand 2 5mC14
B36: o_m_o_o/o_o_o_o (dsDNA)
DNA 1: GAAGTCAACAGGACGGACGCCGCGCAA
DNA 2: B19 DNA 2
modifications: strand 1 5mC18
B37: o_o_m_o/o_o_o_o (dsDNA)
DNA 1: GAAGTCAACAGGACGGACGCCGCGCAA
DNA 2: B19 DNA 2
modifications: strand 1 5mC21
B38: o_o_o_o/m_m_o_o (dsDNA)
DNA 1: GAAGTCAACAGGACGGACGCCGCGCAA
DNA 2: B19 DNA 2
modifications: strand 2 5mC17,5mC21
B39: m_o_o_o/o_o_o_o (dsDNA)
DNA 1: GAAGTCAACAGGACGGACGCCGCGCAA
DNA 2: B19 DNA 2
modifications: strand 1 5mC14
B40: o_o_m_o/o_o_m_m (dsDNA)
DNA 1: GAAGTCAACAGGACGGACGCCGCGCAA
DNA 2: B19 DNA 2
modifications: strand 1 5mC21; strand 2 5mC12,5mC14
B41: m_o_o*/m_m_m (dsDNA)
DNA 1: GTAGTTTGCGGTCCGCTGCCCGACC
DNA 2: GGGTCGGGCAGCGGACCGCAAA
modifications: strand 1 5mC9; strand 2 5mC5,5mC12,5mC17
B42: o_o_o/o_o_o (dsDNA)
DNA 1: TTTGCGGTCCGCTGCCCGACCC
DNA 2: GGGTCGGGCAGCGGACCGCAAA
B43: o_m_m/o_m_m (dsDNA)
DNA 1: TTTGCGGTCCGCTGCCCGACCC
DNA 2: GGGTCGGGCAGCGGACCGCAAA
modifications: strand 1 5mC10,5mC17; strand 2 5mC5,5mC12
B44: m_o_o*/o_m_m (dsDNA)
DNA 1: GTAGTTTGCGGTCCGCTGCCCGACC
DNA 2: GGGTCGGGCAGCGGACCGCAAA
modifications: strand 1 5mC9; strand 2 5mC5,5mC12
B45: o_o_m/m_o_o (dsDNA)
DNA 1: TTTGCGGTCCGCTGCCCGACCC
DNA 2: GGGTCGGGCAGCGGACCGCAAA
modifications: strand 1 5mC17; strand 2 5mC17
B46: o_m_m/m_o_o (dsDNA)
DNA 1: TTTGCGGTCCGCTGCCCGACCC
DNA 2: GGGTCGGGCAGCGGACCGCAAA
modifications: strand 1 5mC10,5mC17; strand 2 5mC17
B47: m_o_o*/o_m_o (dsDNA)
DNA 1: GTAGTTTGCGGTCCGCTGCCCGACC
DNA 2: GGGTCGGGCAGCGGACCGCAAA
modifications: strand 1 5mC9; strand 2 5mC12
B48: o_o_m/o_m_m (dsDNA)
DNA 1: TTTGCGGTCCGCTGCCCGACCC
DNA 2: GGGTCGGGCAGCGGACCGCAAA
modifications: strand 1 5mC17; strand 2 5mC5,5mC12
B49: o_m_o/o_m_m (dsDNA)
DNA 1: TTTGCGGTCCGCTGCCCGACCC
DNA 2: GGGTCGGGCAGCGGACCGCAAA
modifications: strand 1 5mC10; strand 2 5mC5,5mC12
B50: o_o_o/o_m_o (dsDNA)
DNA 1: TTTGCGGTCCGCTGCCCGACCC
DNA 2: GGGTCGGGCAGCGGACCGCAAA
modifications: strand 2 5mC12
B51: m_o_o/o_o_o (dsDNA)
DNA 1: TTTGCGGTCCGCTGCCCGACCC
DNA 2: GGGTCGGGCAGCGGACCGCAAA
modifications: strand 1 5mC5
B52: o_o_o/m_o_m (dsDNA)
DNA 1: TTTGCGGTCCGCTGCCCGACCC
DNA 2: GGGTCGGGCAGCGGACCGCAAA
modifications: strand 2 5mC5,5mC17
B53: o_m_m/o_o_o (dsDNA)
DNA 1: TTTGCGGTCCGCTGCCCGACCC
DNA 2: GGGTCGGGCAGCGGACCGCAAA
modifications: strand 1 5mC10,5mC17

Biological target: T1, 1xMBD-GFP (UniProt Q9Z2E2 1-75)
T1 sequence: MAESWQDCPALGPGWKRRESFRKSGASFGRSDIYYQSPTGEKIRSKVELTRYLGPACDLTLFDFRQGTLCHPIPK
Assay: SPR

Binder | Kd [µM]
B1 | 4.6 ± 0.2
B2 | 0.271 ± 0.005
B3 | 2.3 ± 0.06
B4 | 5.5 ± 0.9
B5 | 0.169 ± 0.002
B6 | 2.08 ± 0.02
B7 | 0.244 ± 0.002
B8 | 0.398 ± 0.002
B9 | 10 ± 0.1
B10 | 2.2 ± 0.02
B11 | 6.8 ± 0.1
B12 | 8.6 ± 0.1
B13 | 13.1 ± 0.3
B14 | 0.564 ± 0.004
B15 | 0.179 ± 0.001
B16 | 4.28 ± 0.05
B17 | 0.181 ± 0.001
B18 | 3.67 ± 0.03
B19 | 37 ± 2
B20 | 1.94 ± 0.02
B21 | 2.4 ± 0.04
B22 | 0.158 ± 0.003
B23 | 3.66 ± 0.05
B24 | 7.6 ± 0.2
B25 | 3.12 ± 0.04
B26 | 0.106 ± 0.001
B27 | 0.561 ± 0.006

Binder | Kd [µM]
B28 | 2.4 ± 0.09
B29 | 4.5 ± 0.1
B30 | 0.315 ± 0.004
B31 | 0.281 ± 0.007
B32 | 3.11 ± 0.03
B33 | 3.19 ± 0.03
B34 | 2.65 ± 0.03
B35 | 3.51 ± 0.03
B36 | 14.7 ± 0.4
B37 | 5.86 ± 0.09
B38 | 7.5 ± 0.2
B39 | 16.8 ± 0.5
B40 | 0.156 ± 0.002
B41 | 0.534 ± 0.004
B42 | 72 ± 5
B43 | 0.139 ± 0.007
B44 | 3.74 ± 0.06
B45 | 5.97 ± 0.08
B46 | 3.47 ± 0.05
B47 | 5.41 ± 0.05
B48 | 0.116 ± 0.001
B49 | 0.252 ± 0.002
B50 | 12 ± 1
B51 | 35 ± 1
B52 | 5.7 ± 0.3
B53 | 3.09 ± 0.02
